Laboratory results as given in patent US8962263B2, “Methods and compositions for detecting the activation state of multiple proteins in single cells” (The Board of Trustees of the Leland Stanford Junior …, priority 2001, dated 2015).
Where two headings read alike, the source gives them in different places.

How the values were obtained:
[1] = molecular target: T1, cell surface LFA-1 (Homo sapiens, UniProt P20701); test: ICAM-2-FITC surface binding on Jurkat cells by flow cytometry (single cell binding measurements)
T1 construct: within the physiological context of cell surface LFA-1; endogenous in cells; host or cells: Jurkat T cells
T1 sequence (P20701 26-1170): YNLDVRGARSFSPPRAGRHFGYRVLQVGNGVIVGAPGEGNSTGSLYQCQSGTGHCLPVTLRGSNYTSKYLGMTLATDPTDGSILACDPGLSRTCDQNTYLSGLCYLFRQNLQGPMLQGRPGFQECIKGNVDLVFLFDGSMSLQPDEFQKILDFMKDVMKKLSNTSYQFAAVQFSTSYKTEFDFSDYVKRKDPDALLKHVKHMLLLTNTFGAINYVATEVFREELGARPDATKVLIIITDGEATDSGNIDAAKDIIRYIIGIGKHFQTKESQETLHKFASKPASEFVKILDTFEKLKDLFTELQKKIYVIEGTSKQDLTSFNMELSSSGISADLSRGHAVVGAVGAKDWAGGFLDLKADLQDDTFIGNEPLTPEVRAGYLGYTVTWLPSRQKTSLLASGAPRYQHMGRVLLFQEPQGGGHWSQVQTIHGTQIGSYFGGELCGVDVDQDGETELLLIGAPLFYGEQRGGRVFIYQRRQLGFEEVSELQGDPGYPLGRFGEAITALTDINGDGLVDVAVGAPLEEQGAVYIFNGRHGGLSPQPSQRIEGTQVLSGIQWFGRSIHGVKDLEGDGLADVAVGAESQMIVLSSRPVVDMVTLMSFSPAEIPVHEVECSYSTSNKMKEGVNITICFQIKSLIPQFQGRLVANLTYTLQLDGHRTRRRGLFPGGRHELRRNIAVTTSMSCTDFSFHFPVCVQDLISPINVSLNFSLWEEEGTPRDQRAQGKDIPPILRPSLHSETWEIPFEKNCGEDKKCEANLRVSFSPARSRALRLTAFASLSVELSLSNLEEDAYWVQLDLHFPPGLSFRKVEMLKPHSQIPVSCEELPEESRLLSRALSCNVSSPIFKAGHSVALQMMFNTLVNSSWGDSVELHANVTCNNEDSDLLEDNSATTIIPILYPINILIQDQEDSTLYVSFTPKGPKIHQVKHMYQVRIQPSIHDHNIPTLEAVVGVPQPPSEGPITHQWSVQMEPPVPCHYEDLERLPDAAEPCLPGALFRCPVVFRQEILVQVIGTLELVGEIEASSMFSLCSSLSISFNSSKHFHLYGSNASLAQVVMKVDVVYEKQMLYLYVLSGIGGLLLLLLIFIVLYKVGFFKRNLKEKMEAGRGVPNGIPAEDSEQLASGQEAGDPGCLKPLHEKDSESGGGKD
T1 sequence (P05107 23-769 partner): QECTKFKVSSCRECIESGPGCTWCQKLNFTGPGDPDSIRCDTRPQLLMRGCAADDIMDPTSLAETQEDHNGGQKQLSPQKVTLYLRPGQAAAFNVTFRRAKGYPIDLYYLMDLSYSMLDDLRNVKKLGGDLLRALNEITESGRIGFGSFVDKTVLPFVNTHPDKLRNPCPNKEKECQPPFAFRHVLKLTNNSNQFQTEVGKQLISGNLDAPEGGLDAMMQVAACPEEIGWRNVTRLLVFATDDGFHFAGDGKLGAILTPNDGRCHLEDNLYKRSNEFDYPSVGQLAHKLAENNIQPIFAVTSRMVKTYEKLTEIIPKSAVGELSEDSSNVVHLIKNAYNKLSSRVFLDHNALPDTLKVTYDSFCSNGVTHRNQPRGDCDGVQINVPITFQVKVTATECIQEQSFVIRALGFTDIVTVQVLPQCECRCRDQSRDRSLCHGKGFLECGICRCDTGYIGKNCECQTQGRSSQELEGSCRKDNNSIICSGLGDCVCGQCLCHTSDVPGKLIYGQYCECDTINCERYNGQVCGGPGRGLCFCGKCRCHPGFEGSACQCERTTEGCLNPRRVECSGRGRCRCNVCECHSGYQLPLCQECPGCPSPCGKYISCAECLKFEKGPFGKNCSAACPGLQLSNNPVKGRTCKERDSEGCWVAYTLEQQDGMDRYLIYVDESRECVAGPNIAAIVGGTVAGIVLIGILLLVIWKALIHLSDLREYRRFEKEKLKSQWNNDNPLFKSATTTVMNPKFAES
Protocol: A) Purified human ICAM-2, from retrovirally transduced NIH3T3, (see materials and methods) was tested for purity, size, and aggregate formation by native gel electrophoresis and gel filtration. Analysis of purified ICAM-2, from two different preps and ICAM2-FC from NSO cells. Molecular weight was calculated using relative distance migration from a molecular weight standard. Concentration was determined using serial dilutions of BSA as a standard. […] B) ICAM-2, ligand binding to cell surface as a function of time. 5×10^6, unstimulated and PMA stimulated (1, μg/ml, 30, min) Jurkat T cells were incubated with ICAM-2-FITC or LFA-1-FITC antibody (1, μg/ml) and subjected to time dependent flow cytometry. Mean fluorescence intensity was plotted per time of a gated homogenous cell population. Flow rate was maintained at 200-300, cells/second, with fluorescence intensity values acquired at 10, millisecond intervals for 1200, seconds. C) Flow cytometric analysis of ICAM-2-FITC and a-LFA-1-FITC surface binding on cytochalisin D treated (10, μM, 30, min) Jurkat cells at 37° C. and 4° C. D) Curve fit analysis of ICAM-2-FITC binding per 10^4, cells. Jurkat cells were incubated with ICAM-2-FITC at 37° C. for 30, min at indicated concentrations in 50, μL volume. Cells were washed 1×, and analyzed for mean fluorescent intensity (MFI) of 10^4, cells. Percent ICAM-2-FITC bound was calculated from the following equation: 100×[(MFI[×]−MFIunstained)/(MFI[saturated]−MFIunstained)] where [×]=ICAM-2-FITC concentration and [saturated]=concentration that saturated binding. Values were fit to the equation Y=m1*M0/(m2+M0) (see materials and methods).
Full length ICAM2 cDNA was obtained from Jurkat cells and cloned into retroviral vector PBM-Z-IN at the BamHI/Sal1 site as described (Perez et al., 2002). Human ICAM-2 was overexpressed in NIH3T3 cells by retroviral infection and harvested by immunoaffinity chromatography. ICAM-2 was affinity purified using a two step lysing procedure and subsequent purification on an anti-ICAM-2 solid support. […] Batch lysate of harvested supernatant was performed (4° C., for 2 hrs), and washed 4 times in buffer C (0.1% Tween-20, PBS pH 7.4). ICAM-2 protein was eluted by 4.5 M NaCl (in Tris pH 6.8), dialyzed overnight (in PBS pH 7.4, 0.001% azide, 0.01% glycerol, 4° C.), concentrated using size exclusion spin chromatography and stabilized using 0.01% glycerol. Anti-ICAM-2 solid support was re-equilibrated in buffer C, stored in 0.001% thimerosol and re-used up to 3 times. Purity was >98% as assessed by coomasie gel. […] Gel imaging was performed on a VersaDoc machine (Biorad) and analyzed using Quantity One quantitation software (Biorad). […]

[2] = tested on: LFA-1; test: LFA-1 activation by mAb24-Alexa633 staining, flow cytometry; type: cell-based, human; details: Jurkat cells, agents 10 μM 30 min, PMA 1 μg/ml, prior to ICAM-2 10 μg/ml 30 min
Protocol: A) Confocal microscopy of actin and microtubule architecture upon ICAM-2, stimulus (10, μg/ml, 30, min) in Jurkat cells. Actin was stained by phalloidin-alexa633, and tubulin by taxol-alexa546. Inserts display enlarged cell image of representative treatment B) Flow cytometric staining for actin and microtubules as described above. C) Left: Fluorescence topography analysis of ICAM-2-FITC (1 μg/ml, time as indicated) surface distribution. Intensity color gradient depicts high and low fluorescent intensity values. Right: Confocal microscopy of ICAM-2-FITC surface binding (10 μg/ml, 30, min) and anti-β2-alexa568, (clone CTB104). D) Staining for ICAM-2-FITC surface binding (fluorescence intensity) and surface distribution (fluorescence pulse) in cytochalisin D treated Jurkat cells at 37° C. and 4° C. by flow cytometry. E) Values for ICAM-2-FITC fluorescence intensity per time-of-flight per cell as described in text. F) Flow cytometric staining for LFA-1 activation by mAb24-alexa633. Stimuli as indicated (10, μM, 30, min), PMA (1, μg/ml) prior to ICAM-2, stimulation (10, μg/ml, 30, min). Staining was performed at 37° C. G) Mean fluorescence intensity (MFI) values of mAb24-633, and ICAM-2, cluster values, computed as described above, as a function of time.
Intracellular and extracellular staining was performed as described (Perez and Nolan, 2002). Intracellular probes for active kinases were made by conjugating phospho-specific antibodies to the ALEXA FLUOR® dye series as described and used in phospho-protein optimized conditions (Perez and Nolan, 2002). Kinetic analyses was performed by direct application of fixation buffer in time synchronized 96-wells maintained at 37° C. Intracellular actin and microtubule staining was performed using phalloidin-Alexa633 and taxol-Alexa546 dyes (Molecular Probes). Adhesion and clustering assays were performed using ICAM-2-FITC as described in text. LFA-1 activation was assessed by either mAb24-Alexa633 or mAb24-Alexa546 conjugate, surface stained at 37° C. Flow cytometry data are representative of 3 independent experiments of 10^6 cells/sample. 10-50,000 events were collected and manually calibrated on a FACSCalibur™ machine. Data plotted in bar graph format is expressed as geometric mean fluorescence intensity (MFI) and normalized for isotype controls. Log ratios are defined as the MFI of stimulus to the MFI of unstimulated cells. Data was analyzed using Flowjo™ software (Treestar).

Molecule: CN(C)CCCn1cc(C2=C(c3c[nH]c4ccccc34)C(=O)NC2=O)c2ccccc21 [bisindolymaleimide I]
- ICAM-2 adhesion measured by binding of ICAM-2-FITC ([1]; PKC inhibitor treated cells): not affected
- LFA-1 activation (mAb24 binding) [2]: inhibited ICAM-2 induced LFA-1 activation

B1: ICAM-2: biochemically purified soluble human ICAM-2 protein from retrovirally transduced NIH3T3 cells; ICAM-2-FC fusion also used (protein, UniProt P13598 25-223, looked up)
extracellular domain: KVFEVHVRPKKLAVEPKGSLEVNCSTTCNQPEVGGLETSLDKILLDEQAQWKHYLVSNISHDTVLQCHFTCSGKQESMNSNVSVYQPPRQVILTLQPTLVAVGKSFTIECRVPTVEPLDSLTLFLFRGNETLHYETFGKAAPAPQEATATFNSTADREDGHRNFSCLAVLDLMSRGGNIFHKHSAPKMLEIYEPVSDSQ
modifications: extracellular domain
notes: biochemically purified soluble human ICAM-2 protein from retrovirally transduced NIH3T3 cells; ICAM-2-FC fusion also used
- Kd ([1]; Jurkat cells, 37° C., 30 min, curve fit analysis, read-out: dissociation constant of ICAM-2-FITC binding): 0.21 ± 0.07 µM
- Kd ([1]; per 10^4 cells, read-out: calculated ICAM-2 affinity): 0.217 ± 0.066 µM
- LFA-1 activation (mAb24 binding) [2]: bimodal population in active LFA-1
- LFA-1 activation (mAb24 binding) ([2]; listed as full length ICAM-2): resulted in active LFA-1
